Measured values reported in patent publication US12612459B2, “Methods of identifying agents that block MCD28 cleavage by MMPS” (BIOND BIOLOGICS LTD., priority 2019, dated 2026).
Where no end group is shown, it is not given here.

Legend:
MMP-2 [1] = molecular target: T1, MMP-2 (Homo sapiens, UniProt P08253); experiment: Fluorogenic assay: cleavage of quenched fluorogenic human CD28 stalk region peptide by MMP-2; assay type: biochemical; settings: increasing dose of inhibitor; FIG. 1C
T1 construct: purchased AnaSpec and R&D Systems AS-72005 / 902-MP
T1 sequence (P08253 110-660): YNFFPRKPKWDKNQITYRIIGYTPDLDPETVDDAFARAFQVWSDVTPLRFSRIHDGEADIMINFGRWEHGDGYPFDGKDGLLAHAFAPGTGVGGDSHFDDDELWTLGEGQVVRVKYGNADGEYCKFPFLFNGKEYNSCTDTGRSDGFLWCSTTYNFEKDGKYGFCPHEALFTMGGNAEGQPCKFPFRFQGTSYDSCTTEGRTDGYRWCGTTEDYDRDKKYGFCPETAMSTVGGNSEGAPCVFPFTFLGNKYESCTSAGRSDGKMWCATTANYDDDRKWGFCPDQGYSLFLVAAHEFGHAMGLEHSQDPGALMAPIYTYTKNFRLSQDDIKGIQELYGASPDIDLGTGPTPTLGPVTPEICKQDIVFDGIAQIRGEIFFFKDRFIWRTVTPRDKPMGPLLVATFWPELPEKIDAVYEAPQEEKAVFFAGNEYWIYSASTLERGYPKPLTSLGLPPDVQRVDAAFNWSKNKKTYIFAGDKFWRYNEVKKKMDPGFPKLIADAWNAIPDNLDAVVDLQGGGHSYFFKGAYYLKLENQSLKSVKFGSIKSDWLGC
Protocol: (§1) FIGS. 1A-1E. (1A-1E) Line graphs of fluorescence from quenched fluorogenic peptides of the human CD28 stalk region incubated with (1A) various recombinant human sheddases, (1B) varying concentrations of rhMMP-2, (1C) MMP-2 and various concentrations of the MMP-2 specific inhibitor ARP-100, (1D) varying concentrations of rhMMP-13, or (1E) MMP-13 and broad MMP inhibitor TMI-1.
(§2) Matrix Metalloproteinases and ADAM's—Commercial recombinant human metalloproteinases MMP-1 (Cat. No. AS-55575), MMP-9 (Cat. No. AS-55576), MMP-10 (Cat. No. AS-72067), MMP-12 (Cat. No. AS-55525) and MMP-13 (Cat. No. AS-72257) are from AnaSpec. […]
(§3) Fluorogenic Assay—The assay was performed with indicated MMP's (10 or 30 ng) in 50 mM Tris, 10 mM CaCl2), 150 mM NaCl, 0.05% Brij-35, pH 7.5 or ADAM10/ADAM17 (5 μg/mL) in 25 mM Tris, 2.5 mM ZnCl2 and 0.005% Brij-35, pH 9. Cleavage of the fluorogenic substrate (10 μM) was measured at Ex340/Em490 nm using Biotek Synergy H1 spectrofluorometer.
(§4) It has been hypothesized that ADAM-10 and ADAM-17 may play a role in this shedding. […] When intact, the fluorochrome on the peptide is quenched and no fluorescence is measured. Cleavage of the peptide allows the fluorochrome to dissociate from the quencher and fluorescence is measurable by a dedicated reader. […] The peptide alone without any sheddase added was used as a control to normalize the readings. […]

MMP-13 [2] = molecular target: T2, MMP-13 (Homo sapiens, UniProt P45452); experiment: Fluorogenic assay: cleavage of quenched fluorogenic human CD28 stalk region peptide by MMP-13; assay type: biochemical; settings: increasing dose of inhibitor; FIG. 1E
Protocol: as §1, §2, §3, §4

[3] = test system: chronically stimulated human PBMCs; settings: previously shown in WO2019/175885; dose dependent; cited from earlier work
MMP-2 [4] = molecular target: T1, MMP-2; experiment: In-vitro cleavage assay of c-Myc tagged, biotinylated dimeric CD28 stalk region peptide by rhMMP-2 (ELISA detection of intact peptide); assay type: biochemical; settings: 25 ng and 50 ng MMP-2, 5-hour incubation; FIG. 4C
MMP-13 [5] = molecular target: T2, MMP-13; experiment: In-vitro cleavage assay of c-Myc tagged, biotinylated dimeric CD28 stalk region peptide by rhMMP-13 (ELISA detection of intact peptide); assay type: biochemical; settings: 25 ng and 50 ng MMP-13, 5-hour incubation; FIG. 4D
human CD28 stalk region = molecular target: T3, human CD28 stalk region (Homo sapiens, UniProt P10747); experiment: Binding to human CD28 stalk region dimeric peptide by ELISA; settings: for binding to human CD28 stalk region sequence: ELISA, serial dilution of VHH clones, FIG. 5; for specific binding to MMP cleavage site of human CD28: WT versus L145K stalk region dimeric peptides, VHH 0.2-5 μg/mL, FIG. 7
T3 construct: human CD28 stalk region (His134-Pro152)

Molecule: CC(C)ON(CC(=O)NO)S(=O)(=O)c1ccc(-c2ccccc2)cc1 [ARP-100]
- cleavage of the CD28 stalk fluorogenic peptide by MMP-2 (MMP-2 [1]): cleavage decreased in a dose dependent manner

Molecule: CC#CCOc1ccc(S(=O)(=O)N2CCSC(C)(C)[C@@H]2C(=O)NO)cc1 [TMI-1]
- cleavage of the CD28 stalk fluorogenic peptide by MMP-13 (MMP-13 [2]): cleavage decreased in a dose dependent manner

Molecule: TAPI
- levels of sCD28 produced by chronically stimulated human PBMCs [3]: diminish levels of sCD28

Molecule: mutated peptide: cMyc tagged, biotinylated dimeric CD28 stalk region peptide with L145K, EQKLISEEDLGGGGHVKGKHLCPSPKFPGPSKP (SEQ ID NO: 19) (EQKLISEEDLGGGGHVKGKHLCPSPKFPGPSKP-biotin; also: dimeric peptide) [reference compound]
- peptide cleaved by MMP-2 (MMP-2 [4]): < 5%
- peptide cleaved by MMP-13 (MMP-13 [5]): < 5%

B1: clone 4A1: llama-derived VHH single domain antibody binding the human CD28 stalk region, SEQ ID NO: 31, C-terminal His-tag (protein)
VHH: QVQLVESGGGLVQAGGSLRLSCAASGSIFSINAMGWYRQAPGKQRERVAAITSGGSTNYADSVKGRFTISRDNAKNTVYLQMNNLEPRDAGVYYCVVDLYGEDYWIWGQGTQVTVSSAAAHHHHHH
modifications: C-terminal His-tag
- binding to human CD28 stalk region sequence (human CD28 stalk region): specifically bind the stalk region of human CD28
- specific binding to MMP cleavage site of human CD28 (human CD28 stalk region): bind specifically to MMP cleavage site of human CD28

B2: clone 4A4: llama-derived VHH single domain antibody binding the human CD28 stalk region, SEQ ID NO: 30, C-terminal His-tag (protein)
VHH: EVQLVESGGGLVQAGGSLRLSCAASGSLFSINAMAWYRQAPGKQRELVAAITSSGSTNYANSVKGRFTVSRDNAKNTMYLQMNSLKPEDTAVYYCVVDEYGSDYWIWGQGTQVTVSSAAAHHHHHH
modifications: C-terminal His-tag
- binding to human CD28 stalk region sequence (human CD28 stalk region): specifically bind the stalk region of human CD28
- specific binding to MMP cleavage site of human CD28 (human CD28 stalk region): bind specifically to MMP cleavage site of human CD28
